Earlier results, collected in article PMC5430804, “Structural and biochemical insights of CypA and AIF interaction” (Scientific Reports, 2017).
pKd: −log10 of the molar value.

Biological target: AIF(Δ1-121) Δ1-121 (Homo sapiens) (UniProt O95831)
Sequence (O95831 1-121, stated change not applied): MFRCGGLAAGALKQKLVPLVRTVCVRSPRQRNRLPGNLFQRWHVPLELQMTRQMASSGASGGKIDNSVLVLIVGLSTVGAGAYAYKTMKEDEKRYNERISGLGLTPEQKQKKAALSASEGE

CypA, sequence (P62937 2-165): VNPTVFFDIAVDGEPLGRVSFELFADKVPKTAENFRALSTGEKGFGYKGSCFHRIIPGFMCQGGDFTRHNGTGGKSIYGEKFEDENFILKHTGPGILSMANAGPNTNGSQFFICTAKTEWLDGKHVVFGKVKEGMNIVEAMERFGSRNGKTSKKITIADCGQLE

pKd: 6.05
Substance: CypA (from UniProt P62937)
